Results on one molecule are retold here after US20170275344A1, “POLYPEPTIDES AND USES THEREOF AS A DRUG FOR TREATMENT OF AUTOIMMUNE DISORDERS” (Compugen Ltd., priority 2014, published 2017).

Test [1] deals with SJL/J mice. Put plainly: Adoptive transfer R-EAE, clinical score. The test is classed as in vivo, mouse. The protocol: Female SJL/J mice were primed with 50 ug of PLP139-151/CFA according to the standard laboratory protocol on day 0. On day 8 post disease induction, the inguinal lymph nodes were collected and the total lymph node cells were re-activated in culture in the presence of PLP139-151 for 3 days. At the end of culture, cells were collected and transferred into naive recipient SJL/J mice.
a. Mice were shaved (about a lin.xlin, square on the back between the hind flanks) and injected with CFA/PLP139-151 emulsion at 100 μl per mouse s.c., divided between three spots on the back and flanks. Peptide and final dose given per mouse: 50 μg of PLP139-151 peptide on day 0.
b. On day 8 post priming with PLP139-151/CFA, the draining inguinal lymph nodes were collected, and single cell suspensions were prepared. Total lymph node cells were cultured at a density of 8×10^6 cells per ml in the HL-1 medium plus PLP139-151 peptide (20 μg/ml) in T75 flasks.
c. After 3 days of culture, the PLP139-151 reactivated cells were collected and counted using an hemacytometer. The number of total viable cells and the number of blast cells was determined. The percentage of blast cells expected following this protocol is 20-30% of the total viable cells.
d. Unless otherwise specified, 3×10^6 cells were transferred to each recipient mouse by intravenous injection.
f. Mice were scored on the indicated days, on a 0-5 disease score scale per standard laboratory protocol: 0, no abnormality; 1, limp tail; 2, limp tail and hind limb weakness; 3, hind limb paralysis; 4, hind limb paralysis and forelimb weakness; and 5, moribund.

The subject of test [2] is SJL mice. Kind of test: PLP139-151/CFA R-EAE with Treg inactivation by anti-CD25. The test is classed as in vivo, mouse. The protocol:
In two studies, EAE was induced in SJL mice via PLP139-151/CFA priming as described under Methods, below. The mice were divided into 4 and 8 groups in Study I and Study II, respectively groups (n=10/treatment group). In both studies, groups 1-4 the mice received two injections separated by one day, of either Control Ab or anti-CD25 (clone 7D4 at 500 μg/injection i.p. (BioXCell Cat# BE0013; West Lebanon, N.H.)) starting at the onset of disease remission (Day +19 and 21 in Study I or Day +20 and 22 in Study II), followed by treatment with either mIgG2a Control Ig or C1ORF32 ECD-Fc (100 ug/dose; 3×/wk; 2 wks) beginning on the day of the second treatment with anti CD25 (Day 21 in study I and day 22 in study II).
To study the importance of Treg function for maintenance of tolerance by C1ORF32 ECD-Fc a second set of mice was set in study II, groups 5-8, in which mice were treated with Control Ig or C1ORF32 ECD-Fc (SEQ ID NO:42) first in a similar regimen as groups 1-4 (beginning on Day +22), and then two weeks following the last C1ORF32 ECD-Fc (SEQ ID NO:42) treatment, on days 46 and 48, mice received either Control Ab or anti-CD25 (500 μg/injection) to inactivate the Treg cells. The mice were followed for the level of disease severity.
Study I Treatment Groups (n=10 Mice Per Group) 1. Control Ab (Day +19 and 21) plus Control Ig (100 ug/dose; 3×/wk; 2 wks; beginning on Day +21) 2. Anti-CD25 Ab (Day +19 and 21) plus Control Ig (100 ug/dose; 3×/wk; 2 wks; beginning on Day +21) 3. Control Ab (Day +19 and 21) plus C1ORF ECD-Fc (SEQ ID NO:42) (100 ug/dose; 3×/wk; 2 wks; beginning on Day +21) 4. Anti-CD25 Ab (Day +19 and 21) plus C1ORF ECD-Fc (SEQ ID NO:42) (100 ug/dose; 3×/wk; 2 wks; beginning on Day +21) Study II Treatment Groups (n=10 Mice Per Group) 1. Control Ab (Day +20 and 22) plus Control Ig (100 ug/dose; 3×/wk; 2 wks; beginning on Day +22) 2. Anti-CD25 Ab (Day +20 and 22) plus Control Ig (100 ug/dose; 3×/wk; 2 wks; beginning on Day +22) 3. Control Ab (Day +20 and 22) plus C1ORF32 ECD-Fc (SEQ ID NO:42) (100 ug/dose; 3×/wk; 2 wks; beginning on Day +22) 4. Anti-CD25 Ab (Day +20 and 22) plus C1ORF32 ECD-Fc (SEQ ID NO:42) (100 ug/dose; 3×/wk; 2 wks; beginning on Day +22) 5. Control Ig (100 ug/dose; 3×/wk; 2 wks; beginning on Day +22) plus Control Ab (Day +46 and 48) 6. […]
SJL mice were primed with 50 μg PLP139-151/CFA to induce R-EAE, and followed for disease through the acute phase of disease and into disease remission. […] Clinical results are expressed as the mean clinical score.
Mice were followed for disease and scored on a 0-5 scale per standard lab protocol as follows: 0, no abnormality; 1, limp tail; 2, limp tail and hind limb weakness; 3, hind limb paralysis; 4, hind limb paralysis and forelimb weakness; and 5, moribund.

B1: C1ORF32 ECD-Fc (SEQ ID NO:42): fusion protein of human C1ORF32 ECD fused to mouse immunoglobulin Fc (human-mouse fusion protein) (protein)
chain: LQVTVPDKKKVAMLFQPTVLRCHFSTSSHQPAVVQWKFKSYCQDRMGESLGMSSTRAQSLSKRNLEWDPYLDCLDSRRTVRVVASKQGSTVTLGDFYRGREITIVHDADLQIGKLMWGDSGLYYCIITTPDDLEGKNEDSVELLVLGRTGLLADLLPSFAVEIMGSENLYFQGSGEPRGPTIKPCPPCKCPAPNLLGGPSVFIFPPKIKDVLMISLSPIVTCVVVDVSEDDPDVQISWFVNNVEVHTAQTQTHREDYNSTLRVVSALPIQHQDWMSGKEFKCKVNNKDLPAPIERTISKPKGSVRAPQVYVLPPPEEEMTKKQVTLTCMVTDFMPEDIYVEWTNNGKTELNYKNTEPVLDSDGSYFMYSKLRVEKKNWVERNSYSCSVVHEGLHNHHTTKSFSRTPGK
modifications: Fusion protein human C1ORF32-ECD fused to mouse IgG2a Fc
As to B1, the “clinical signs of the disease (mean clinical score)” value in test [1] (100 ug/mouse i.p. 3x/wk for 2 wks from onset of disease remission, two studies) is recorded as “robust inhibition of clinical signs of the disease”. In addition, in test [1] (study Cgen data, treatment from the time of cell transfer, 100 ug/dose i.p. 3x/wk for 2 wks), the disease induction entry was “complete abolishment of disease induction”. The disease development entry in test [1] (study MYC48 FACS, treatment from the time of cell transfer, 100 ug/dose i.p. 3x/wk for 2 wks) was “abolished disease development”. Besides, in test [2] (Study I, Control Ab, 100 ug/dose 3x/wk 2 wks from Day +21), the “relapsing EAE disease” value is recorded as “abrogated”. The disease severity result in test [2] (Study I, treatment starting after anti-CD25 (Day +19 and 21), vs anti CD25 + control Ig) is reported as “significant decrease in disease severity”. For the same molecule, the disease symptoms result in test [2] (Study II, anti-CD25 on days 20 and 22, before treatment from day 22) is “completely inhibited diseases symptoms”. For the same molecule, the “disease course after late Treg inactivation” value in test [2] (Study II, anti-CD25 on days 46 and 48, 2 weeks after completion of treatment) is “immediate relapse which was alleviated as the effect of anti-CD25 dropped off”.
